Residue numbers refer to the chain shown, from its start.
B1: KL2B870 (antibody, human IgG1, kappa)
heavy: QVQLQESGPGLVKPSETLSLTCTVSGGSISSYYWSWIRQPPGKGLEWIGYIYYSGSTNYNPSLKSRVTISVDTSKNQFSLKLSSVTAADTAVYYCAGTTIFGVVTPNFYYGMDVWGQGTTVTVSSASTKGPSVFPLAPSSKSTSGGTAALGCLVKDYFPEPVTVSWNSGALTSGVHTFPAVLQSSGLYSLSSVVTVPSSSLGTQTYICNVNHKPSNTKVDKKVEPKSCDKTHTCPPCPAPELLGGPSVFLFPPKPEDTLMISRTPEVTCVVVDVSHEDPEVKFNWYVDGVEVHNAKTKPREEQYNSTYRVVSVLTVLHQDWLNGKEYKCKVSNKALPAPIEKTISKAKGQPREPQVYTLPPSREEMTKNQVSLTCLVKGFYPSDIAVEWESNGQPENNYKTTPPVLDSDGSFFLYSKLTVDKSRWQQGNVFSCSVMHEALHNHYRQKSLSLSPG
light: DIQMTQSPSFLSASVGDRVTITCRASQGISSYLAWYQQKPGKAPKFLIYAASTLQSGVPSRFSGSGSGTEFTLTISSLQPEDFATYYCQQLNSYPLTFGGGTKVEIKRTVAAPSVFIFPPSDEQLKSGTASVVCLLNNFYPREAKVQWKVDNALQSGNSQESVTEQDSKDSTYSLSSTLTLSKADYEKHKVYACEVTHQGLSSPVTKSFNRGEC
B2: KL2B872.CLF (antibody, human IgG1, kappa)
heavy: not shown
light: B1 light
B3: KL2B870.CLF (antibody, human IgG1, kappa)
heavy: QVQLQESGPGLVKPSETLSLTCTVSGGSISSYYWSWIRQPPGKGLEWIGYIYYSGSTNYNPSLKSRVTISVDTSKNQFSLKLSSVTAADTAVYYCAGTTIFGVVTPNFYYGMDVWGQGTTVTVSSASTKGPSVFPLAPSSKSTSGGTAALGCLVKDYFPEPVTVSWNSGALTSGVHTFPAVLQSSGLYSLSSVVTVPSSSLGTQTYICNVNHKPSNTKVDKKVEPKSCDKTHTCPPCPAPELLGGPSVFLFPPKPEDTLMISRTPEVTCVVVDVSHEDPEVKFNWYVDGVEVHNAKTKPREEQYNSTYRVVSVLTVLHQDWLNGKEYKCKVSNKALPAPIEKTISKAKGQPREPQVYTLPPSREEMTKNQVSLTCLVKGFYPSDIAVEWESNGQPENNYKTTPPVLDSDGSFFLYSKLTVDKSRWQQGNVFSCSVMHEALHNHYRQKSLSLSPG
light: B1 light
B4: PSMB952 (antibody, V domains shown)
VH: EVQLVESGGGLVQPGGSLRLSCAASGFTFSSYAMSWVRQAPGKGLEWVSAISGGIGSTYYADSVKGRFTISRDNSKNTLWLQMNSLRAEDTAVYYCAKDGVGATPYYFDYWGQGTLVTVSS
VL: QSVLTQPPSVSAAPGQKVTISCSGSSSNIGINYVSWYQQLPGTAPKLLIYDNNKRPSGIPDRFSGSKSGTSATLGITGLQTGDEADYYCGTWDSSLSAVVFGGGTKLTVL
B5: PSMB956 (antibody, V domains shown)
VH: B4 VH with I55S, W80Y, T91S
VL: B4 VL

Tests used:
Assay in all cases: cell-based or functional assay
KLK2 [1] = target: T1, KLK2 (UniProt P20151 25-261, limits assumed)
T1 sequence (P20151 25-261 limits assumed): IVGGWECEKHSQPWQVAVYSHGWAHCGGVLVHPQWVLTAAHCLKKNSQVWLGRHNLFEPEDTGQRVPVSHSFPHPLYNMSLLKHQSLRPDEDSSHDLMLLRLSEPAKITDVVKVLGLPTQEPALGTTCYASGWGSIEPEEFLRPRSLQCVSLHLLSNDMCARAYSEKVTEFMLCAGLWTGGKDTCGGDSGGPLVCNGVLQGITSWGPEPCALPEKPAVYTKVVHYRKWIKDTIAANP

KLK2 [2] = target: T1, KLK2; remark: listed apart in the source
PSMA = PSMA (UniProt Q04609 44-750, limits assumed)
PSMA, sequence (Q04609 44-750 limits assumed): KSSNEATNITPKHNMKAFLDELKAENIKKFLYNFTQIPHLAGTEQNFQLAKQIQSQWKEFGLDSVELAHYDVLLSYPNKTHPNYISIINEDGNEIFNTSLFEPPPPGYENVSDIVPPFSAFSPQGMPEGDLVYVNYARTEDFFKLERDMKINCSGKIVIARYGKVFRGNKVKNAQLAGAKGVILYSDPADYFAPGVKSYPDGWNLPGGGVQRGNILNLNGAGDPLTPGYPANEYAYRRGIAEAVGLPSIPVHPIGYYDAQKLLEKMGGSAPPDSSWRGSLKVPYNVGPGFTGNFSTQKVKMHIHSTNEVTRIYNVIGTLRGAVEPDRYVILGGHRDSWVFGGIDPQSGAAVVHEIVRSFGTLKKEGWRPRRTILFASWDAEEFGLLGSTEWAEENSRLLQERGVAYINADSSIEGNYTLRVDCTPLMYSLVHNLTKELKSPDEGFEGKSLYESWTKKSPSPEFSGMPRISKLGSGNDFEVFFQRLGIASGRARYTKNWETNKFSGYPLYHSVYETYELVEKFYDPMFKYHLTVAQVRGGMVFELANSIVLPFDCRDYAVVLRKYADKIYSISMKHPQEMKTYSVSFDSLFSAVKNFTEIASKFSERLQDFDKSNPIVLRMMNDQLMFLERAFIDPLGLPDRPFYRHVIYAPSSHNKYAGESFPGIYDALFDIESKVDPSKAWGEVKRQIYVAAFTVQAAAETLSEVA

| Binder | ADCC activity, cell killing of VCaP cells by PBMC (KLK2 [1]) [%] | EC50 (M), ADCC killing of VCaP cells by PBMC at 48 hour (KLK2 [2]) [M] | In vitro ADCC killing EC50 (M), C42B cells, NK cells, 24 hour (PSMA) [M] | In vitro ADCC killing EC50 (M), C42B cells, PBMC, 6 hour (PSMA) [M] | In vitro ADCC killing EC50 (M), LNCaP cells, NK cells, 24 hour (PSMA) [M] | In vitro ADCC killing EC50 (M), LNCaP cells, PBMC, 6 hour (PSMA) [M] |
| --- | --- | --- | --- | --- | --- | --- |
| B1 | ~73 | 1e-09 | – | – | – | – |
| B2 | ~85 | 4.12e-10 | – | – | – | – |
| B3 | ~89 | 3.54e-10 | – | – | – | – |
| B4 | – | – | 2.45e-11 | 3.51e-10 | 4.59e-11 | 2.01e-10 |
| B5 | – | – | 9.96e-12 | 4.23e-10 | 3.58e-11 | 1.52e-10 |

Source: patent US20250011454A1 (published 2025)
